Test results from publication doi:10.1101/681007 (bioRxiv, 2019).

Key:
[1] = molecular target: Human TAp63α (aa10-616, TEV site inserted at aa570 and V599M) (human); test: SEC
[2] = molecular target: the molecule itself; test: native gel or EMSA

stoichiometry N [1]	Molecule	stoichiometry N [2]
2	Human TAp63α (aa10-616, TEV site inserted at aa570 and V599M) (natural protein)	–
–	TAp63α, endogenous in mouse ovaries, untreated (closed dimeric form) (natural protein, mouse (endogenous in ovaries), UniProt O88898-1 40-680, looked up) MSQSTQTSEFLSPEVFQHIWDFLEQPICSVQPIELNFVDEPSENGATNKIEISMDCIRMQDSDLSDPMWPQYTNLGLLNSMDQQIQNGSSSTSPYNTDHAQNSVTAPSPYAQPSSTFDALSPSPAIPSNTDYPGPHSFDVSFQQSSTAKSATWTYSTELKKLYCQIAKTCPIQIKVMTPPPQGAVIRAMPVYKKAEHVTEVVKRCPNHELSREFNEGQIAPPSHLIRVEGNSHAQYVEDPITGRQSVLVPYEPPQVGTEFTTVLYNFMCNSSCVGGMNRRPILIIVTLETRDGQVLGRRCFEARICACPGRDRKADEDSIRKQQVSDSAKNGDGTKRPFRQNTHGIQMTSIKKRRSPDDELLYLPVRGRETYEMLLKIKESLELMQYLPQHTIETYRQQQQQQHQHLLQKQTSMQSQSSYGNSSPPLNKMNSMNKLPSVSQLINPQQRNALTPTTMPEGMGANIPMMGTHMPMAGDMNGLSPTQALPPPLSMPSTSHCTPPPPYPTDCSIVSFLARLGCSSCLDYFTTQGLTTIYQIEHYSMDDLASLKIPEQFRHAIWKGILDHRQLHDFSSPPHLLRTPSGASTVSVGSSETRGERVIDAVRFTLRQTISFPPRDEWNDFNFDMDSRRNKQQRIKEEGE	2
–	TAp63α, endogenous in mouse ovaries, phosphorylated after 0.5 Gy γ-irradiation (active tetrameric form) (natural protein, mouse (endogenous in ovaries), UniProt O88898-1 40-680, looked up, phosphorylated (phosphorylation dependent mobility shift on SDS-PAGE); the sites were not determined in this experiment) MSQSTQTSEFLSPEVFQHIWDFLEQPICSVQPIELNFVDEPSENGATNKIEISMDCIRMQDSDLSDPMWPQYTNLGLLNSMDQQIQNGSSSTSPYNTDHAQNSVTAPSPYAQPSSTFDALSPSPAIPSNTDYPGPHSFDVSFQQSSTAKSATWTYSTELKKLYCQIAKTCPIQIKVMTPPPQGAVIRAMPVYKKAEHVTEVVKRCPNHELSREFNEGQIAPPSHLIRVEGNSHAQYVEDPITGRQSVLVPYEPPQVGTEFTTVLYNFMCNSSCVGGMNRRPILIIVTLETRDGQVLGRRCFEARICACPGRDRKADEDSIRKQQVSDSAKNGDGTKRPFRQNTHGIQMTSIKKRRSPDDELLYLPVRGRETYEMLLKIKESLELMQYLPQHTIETYRQQQQQQHQHLLQKQTSMQSQSSYGNSSPPLNKMNSMNKLPSVSQLINPQQRNALTPTTMPEGMGANIPMMGTHMPMAGDMNGLSPTQALPPPLSMPSTSHCTPPPPYPTDCSIVSFLARLGCSSCLDYFTTQGLTTIYQIEHYSMDDLASLKIPEQFRHAIWKGILDHRQLHDFSSPPHLLRTPSGASTVSVGSSETRGERVIDAVRFTLRQTISFPPRDEWNDFNFDMDSRRNKQQRIKEEGE	4
